Residue numbers refer to the chain shown, from its start.
Tests used:
[1] = biological target: T1, Human OX40 expressed on transfected Jurkat or CHO cells (human, UniProt P43489 29-277); test: flow cytometry, whole cell binding to human OX40-expressing Jurkat cells, Alexa Fluor488 anti-human IgG Fc, Geo MFI
T1 construct: also called human OX40/Jurkat; human OX40/CHO
T1 sequence: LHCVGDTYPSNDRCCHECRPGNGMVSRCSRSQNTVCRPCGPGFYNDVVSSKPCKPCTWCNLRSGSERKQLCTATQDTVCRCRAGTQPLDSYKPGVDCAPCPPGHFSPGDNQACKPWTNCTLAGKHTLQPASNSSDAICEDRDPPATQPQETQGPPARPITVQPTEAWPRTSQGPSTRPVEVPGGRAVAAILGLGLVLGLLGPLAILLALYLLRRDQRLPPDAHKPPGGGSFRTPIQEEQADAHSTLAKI

Fc-fused mouse OX40 ECD = biological target: T2, Fc-fused mouse OX40 ECD (mouse, UniProt P47741 20-211); test: ELISA: plate coated with Fc-fused mouse OX40 ECD, biotin-labeled c5E10, HRP-avidin, OD450
T2 construct: extracellular domain; also called recombinant mouse OX40 ECD; not shown: Fc
T2 sequence (looked up): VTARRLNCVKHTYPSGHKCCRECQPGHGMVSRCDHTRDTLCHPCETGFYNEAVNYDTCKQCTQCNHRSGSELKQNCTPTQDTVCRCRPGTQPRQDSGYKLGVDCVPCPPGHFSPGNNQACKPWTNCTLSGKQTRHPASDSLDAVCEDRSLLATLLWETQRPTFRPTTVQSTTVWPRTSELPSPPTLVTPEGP
Experimental: The protein was expressed in ExpiCHO cells, and purified by Protein A affinity chromatography. […] Briefly, 1 μg/ml of Fc-fused human or mouse OX40 ECD was coated in a 96-well high binding plate at 4° C. overnight.

[2] = biological target: T3, Human CTLA4 expressed on transfected CHO or Jurkat cells (human, UniProt P16410 36-222); test: flow cytometry, whole cell binding to human CTLA4-expressing CHO cells, Alexa Fluor488 anti-human IgG Fc, Geo MFI
T3 construct: also called human CTLA4/CHO; human CTLA4/Jurkat
T3 sequence: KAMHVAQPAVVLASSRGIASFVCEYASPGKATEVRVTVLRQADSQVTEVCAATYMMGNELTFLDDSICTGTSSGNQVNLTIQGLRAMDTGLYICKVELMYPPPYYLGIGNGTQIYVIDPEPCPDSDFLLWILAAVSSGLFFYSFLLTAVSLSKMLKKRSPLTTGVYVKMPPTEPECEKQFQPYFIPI

[3] = biological target: T4, Recombinant human OX40 extracellular domain fused to human IgG1 Fc (human, UniProt P43489 29-214); test: ELISA of VHH supernatants on plates pre-coated with human OX40 ECD-Fc or human OX40 ECD-His
T4 construct: Produced in-house; also called OX40 ECD-Fc; human OX40 ECD-Fc; not shown: human IgG1 Fc
T4 sequence: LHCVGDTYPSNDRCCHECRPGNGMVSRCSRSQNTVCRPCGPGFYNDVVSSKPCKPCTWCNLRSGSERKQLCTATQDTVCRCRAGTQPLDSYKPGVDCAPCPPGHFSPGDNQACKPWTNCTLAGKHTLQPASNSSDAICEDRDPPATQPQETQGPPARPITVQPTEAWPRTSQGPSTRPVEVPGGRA

B1: Ipilimumab (anti-CTLA4 antibody) (antibody, V domains shown)
VH: QVQLVESGGGVVQPGRSLRLSCAASGFTFSSYTMHWVRQAPGKGLEWVTFISYDGNNKYYADSVKGRFTISRDNSKNTLYLQMNSLRAEDTAIYYCARTGWLGPFDYWGQGTLVTVSS
VL: not shown
binding result [1]: no binding

B2: c5E10 chimeric bivalent antibody (llama VHH clone 5E10 fused to human IgG1 Fc) (antibody, V domains shown)
VH: QVKLEESGGGSVQSGGSLRLACSASGPLGYPSIAWFRQVTGKDQEFVAGIAWSGGDTYYADSVKGRFAISRDTDRNTVELQMNNLKPEDTAVYYCAADTVVHYMGRHDIRDREEYDHWGQGTQVTVSS
notes: Bivalent VHH-Fc, human IgG1 Fc; also called c5E10-Fc; c5E10-bi
binding result (Fc-fused mouse OX40 ECD): no binding
binding result [2]: no binding

B3: 5E10 llama VHH (VHH)
VHH: B2 VH with Q120P
notes: VHH secreted into the culture supernatant from phagemid pADL-23c; also called c5E10 VHH
binding result [3]: binds

Reference: patent publication US20240383996A1 (SHANGHAI HENLIUS BIOTECH, published 2024)
